Measured values from paper PMC9896449.

Columns and labels:
[1] = molecular target: BiShAb0201 (ShAb02 VNAR - (GGGGS)5 - ShAb01 VNAR - human IgG1 Fc) (nurse shark (Ginglymostoma cirratum)); assay: BLI
[2] = molecular target: ShAb01H02K (knob-in-hole heterodimer of ShAb01-Fc and ShAb02-Fc) (nurse shark (Ginglymostoma cirratum)); assay: BLI

Substance	Kd [1]	koff [1]	kon [1]	Kd [2]	koff [2]	kon [2]
SARS-CoV-2 RBD B.1.1.7, Alpha (N501Y) (from UniProt P0DTC2 331-527) (domain or fragment)	1.8 nM	0.00037 s⁻¹	207000 M⁻¹ s⁻¹	1.5 nM	0.000513 s⁻¹	341000 M⁻¹ s⁻¹
SARS-CoV-2 RBD B.1.351, Beta (K417N, E484K, N501Y) (from UniProt P0DTC2 331-527) (domain or fragment)	2.1 nM	0.000436 s⁻¹	206000 M⁻¹ s⁻¹	1.8 nM	0.000538 s⁻¹	294000 M⁻¹ s⁻¹
SARS-CoV-2 RBD B.1.427/429, Epsilon (L452R) (from UniProt P0DTC2 331-527) (domain or fragment)	1.2 nM	0.000133 s⁻¹	109000 M⁻¹ s⁻¹	0.08 nM	1.21e-05 s⁻¹	156000 M⁻¹ s⁻¹
SARS-CoV-2 RBD B.1.525, Eta, Iota (E484K) (from UniProt P0DTC2 331-527) (domain or fragment)	2 nM	0.000415 s⁻¹	210000 M⁻¹ s⁻¹	1.6 nM	0.000511 s⁻¹	310000 M⁻¹ s⁻¹
SARS-CoV-2 RBD B.1.617, Kappa (L452R, E484Q) (from UniProt P0DTC2 331-527) (domain or fragment)	4.4 nM	0.000238 s⁻¹	53600 M⁻¹ s⁻¹	2.2 nM	0.000326 s⁻¹	151000 M⁻¹ s⁻¹
SARS-CoV-2 RBD B.1.617.2, Delta (L452R, T478K) (from UniProt P0DTC2 331-527) (domain or fragment)	0.72 nM	4.1e-05 s⁻¹	57000 M⁻¹ s⁻¹	< 0.001 nM	< 1e-07 s⁻¹	90000 M⁻¹ s⁻¹
SARS-CoV-2 RBD E484K, N501Y (from UniProt P0DTC2 331-527) (domain or fragment)	2.3 nM	0.000412 s⁻¹	177000 M⁻¹ s⁻¹	1.9 nM	0.000512 s⁻¹	277000 M⁻¹ s⁻¹
SARS-CoV-2 RBD K417N (from UniProt P0DTC2 331-527) (domain or fragment)	1.7 nM	0.000352 s⁻¹	211000 M⁻¹ s⁻¹	1.3 nM	0.000457 s⁻¹	353000 M⁻¹ s⁻¹
SARS-CoV-2 RBD P.1, Gamma (K417T, E484K, N501Y) (from UniProt P0DTC2 331-527) (domain or fragment)	6.5 nM	0.000508 s⁻¹	78000 M⁻¹ s⁻¹	4.2 nM	0.000305 s⁻¹	73500 M⁻¹ s⁻¹
